Measured values published in paper PMC7192608.

T1: Rap1 BRCT domain (Saccharomyces cerevisiae, UniProt P11938 1-358)
T1 sequence: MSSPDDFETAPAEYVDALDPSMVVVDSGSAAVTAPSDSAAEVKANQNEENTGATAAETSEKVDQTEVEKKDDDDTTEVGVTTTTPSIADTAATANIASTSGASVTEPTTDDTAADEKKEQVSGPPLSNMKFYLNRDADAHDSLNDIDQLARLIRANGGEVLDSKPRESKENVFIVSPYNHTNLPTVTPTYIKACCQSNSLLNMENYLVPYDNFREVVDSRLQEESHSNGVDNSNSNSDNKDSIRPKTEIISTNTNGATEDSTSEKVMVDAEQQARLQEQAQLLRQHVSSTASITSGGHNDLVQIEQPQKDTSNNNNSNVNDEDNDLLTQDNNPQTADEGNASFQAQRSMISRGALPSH

T2: Rap1 RCT (C-terminal domain) (Saccharomyces cerevisiae, UniProt P11938 600-827)
T2 sequence: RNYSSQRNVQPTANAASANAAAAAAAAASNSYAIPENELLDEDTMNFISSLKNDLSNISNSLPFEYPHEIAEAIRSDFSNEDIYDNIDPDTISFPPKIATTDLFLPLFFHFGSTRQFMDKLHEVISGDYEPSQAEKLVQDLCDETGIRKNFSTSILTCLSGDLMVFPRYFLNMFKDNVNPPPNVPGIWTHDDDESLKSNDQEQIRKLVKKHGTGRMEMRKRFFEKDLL

T3: Rap1-DBD (Saccharomyces cerevisiae, UniProt P11938 360-598)
T3 sequence: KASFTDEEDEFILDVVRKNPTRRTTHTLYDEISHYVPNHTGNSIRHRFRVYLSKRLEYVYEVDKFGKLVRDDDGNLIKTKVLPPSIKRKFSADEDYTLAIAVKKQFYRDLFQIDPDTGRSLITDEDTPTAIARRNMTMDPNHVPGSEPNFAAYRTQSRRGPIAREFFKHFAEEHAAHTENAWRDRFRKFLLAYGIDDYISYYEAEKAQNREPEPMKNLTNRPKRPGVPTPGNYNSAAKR


What was measured:
Experiment in all cases: EMSA
Rap1 BRCT domain = molecular target: T1, Rap1 BRCT domain
[1] = molecular target: T2, Rap1 RCT (C-terminal domain)
Rap1-DBD = molecular target: T3, Rap1-DBD

Row | Binder | binding result (Rap1 BRCT domain) | binding result [1] | Kd (Rap1-DBD) [nM]
1 | AATTCTGGGTGTGTGGGTGTGTGGGTGTGTGGGTGTGG (structured_DNA) [4-G3] | no binding | no binding | 28
2 | TGGGTGTGTGGGTGTGTGGGTGTGTGGG (structured_DNA) [4-G3 no tail] |  |  | 22
3 | TTGGGTGGGTGGGTGGGTT (structured_DNA) [T-loops] |  |  | 45
